Measurements published in the DeepSol protein solubility set.

assay: soluble on expression in E. coli; label from the status in PepcDB or PDB records

Sequence | soluble on expression in E. coli
GFILKRGWTVLESKYLDLLAQKYDCEEKVVTEIINLKAILNLPKGTEHFVSDLHGEYQAFQHVLRNGSGRVKEKIRDIFSGVIYDREIDELAALVYYPEDKLKLIKHDFDAKEALNEWYKETIHRMIKLVSYCSSKYTRSKLRKALPAQFAYITEELLYKTEQAGNKEQYYSEIIDQIIELGQADKLITGLAYSVQRLVVDHLHVVGDIYDRGPQPDRIMEELINYHSVDIQWGNHDVLWIGAYSGSKVCLANIIRICARYDNLDIIEDVYGINLRPLLNLAEKYYDDNPAFRPKADENRPEDEIKQITKIHQAIAMIQFKLESPIIKRRPNFNMEERLLLEKIDYDKNEITLNGKTYQLENTCFATINPEQPDQLLEEEAEVIDKLLFSVQHSEKLGRHMNFMMKKGSLYLKYNGNLLIHGCIPVDENGNMETMMIEDKPYAGRELLDVFERFLREAFAHPEETDDLATDMAWYLWTGEYSSLFGKRAMTTFERYFIKEKETHKEKKNPYYYLREDEATCRNILAEFGLNPDHGHIINGHTPVKEIEGEDPIKANGKMIVIDGGFSKAYQSTTGIAGYTLLYNSYGMQLVAHKHFNSKAEVLSTGTDVLTVKRLVDKELERKKVKETNVGEELLQEVAILESLREYRY | not soluble
MQRLFRQKMIINSLGTSPTSVDTLVELTGASPATIRRDLTDLEGHGQLRKVHGGAVAVNLRGTPMPYSLRSAENAESKTAIAQLVSRLVTDDMSVIIDNGSTMVAVAQALQERPITALCLSLRAALPLGEGGVATVSTPDGTLMPESLRYAAASCLRALGEFRADVAIVGTCSASPAMGLTVTTHQDAQVKRAILASSARVVLAATGDKLSRTSSFRFGDIEDIDDLVTTRDAPQVTLDAFRVAGSRVYVADLEHHHHHH | soluble
MSNSSKDADSNLKSTVKPRYLILGSGSIGFALAKELRESNKLVIIVDKDEAKIETLREEGFEAILGDISDPELVNNIDLKNVVAILFLSSNNEANRKGIENFKKVVNPDIQIFSRASDIINKEKMEDLGSDYVFMPSKLVASSLSRSLERAESVHRGNRLARWLKGIRDKKLAIVIHDNPDPDAISSGLALKEIAKSLGVEASILYHGRIGHQENKAFVNLLGIDLGKMEEHDLKDFDEIALIDCSIPGVNNMVPPNSYVGIVIDHHPPGETEIKAEYIDIRPNFGATATIMTKYLQQLNINISKTLATALLYGIRTDTQDFKRKTDPADLSAASYLYPLSNHGILDQLEQPSMAIETLEVLGEAIRNRQVLGSYLLSNVGNIRDRDTLPQAADYLLSLEGISTTVVFGVSEDRIYISGRSTDIRVNLGEIMRQAFGEDAGGHANAAGAQIPLGVFSATKDRQTLLRLVNEAVVKRFLSAVGVESTGE | soluble
MGSSHHHHHHSQDPNSLEVLFQGPMAGGRDRGDLAARQLVFLLPEHLKDASKKKKKSSLLFVKLANPHSGEGATYLIDMCLQQLFEIKVFKEKHHSWFINQSVQSGGLLHFATPMDPLFLLLHYLLKAGKEGKYQPLDQVVVDDTFPDCTLLLRFPELEKSLRHVTEEKEVNSKKYYKYSSEKTLKWLEKKVNQTVVALKANNVNVGARVQSSAYFSGGQVSRDKEEDYVRYAHGLISDYIPKELSDDLSKFLKLPEPPASLPNPPSKKLKLSDEPVEAKEDYTKFNTKDLKTGKKNSKMTAAQKALAKVDKSGMKSIDAFFGAKNKKTGKI | soluble
SASSDLEQLCSHVNEKIGNIKKTLSLRNCGQEPTLKTVLNKIGDEIIVINELLNKLELEIQYQEQTNNSLKELCESLEEDYKDIEHLKENVPSHLPQVTVTQSCVKGSDLDPEEPIKVEEPEPVKKPPKEQRSIKEMPFITCDEFNGVPSYMKSRLTYNQINDVIKEINKAVISKYKILHQPKKSMNSVTRNLYHRFIDEETKDTKGRYFIVEADIKEFTTLKADKKFHVLLNILRHCRRLSEVRGGGLTRYVIT | soluble
MSDHFVSERQALILAQLRQSGRVLAQDLAQNFGVSEDTVRRDLREMAARGECLRVYGGALLSDSTTVPLKTRITEDADRKATLARAVVPLIEPGMVVFIDAGSTNLAIARAIPAGLNLTVVTNTPAIAADLTGRADIDLVLIGGKVDPAVGAAIDAMALRQLELMRPDLCVLGVCGVAAETGLSADVFEDAVFKRLACSASQRVIAAITTEKLGHKAAFHVHDFSPPLCLVLERDADRALVESLSAQGVDVYCGEDDAAPFSHGQVLEHHHHHH | soluble
MSGVSTAAYFARRAAQKERVRILYRRALKDTLNWAVHRHIFYRDEDVDRIDKLIAHGEAEYNKWRHPDPYIVPWAPGGSKFCRNPTPPAGIEIVYNYGLEDNP | not soluble
